Experimental data taken from KR20200067522A (dated 2020).

What was measured:
CRM 197 의 A 단편(21kDa) = biological target: T1, CRM 197 의 A 단편(21kDa) (Corynebacterium diphtheriae C7 (β197) …, UniProt P00588 33-225); experiment: western blot of trypsin/DTT-cleaved CRM197
T1 construct: domain: A 단편(21kDa); Band on a reducing SDS-PAGE / western blot after trypsin digestion

[1] = biological target: T2, CRM 197 (Cross-reactive material 197) (Corynebacterium diphtheriae C7 (β197) …, UniProt P00588 33-567); experiment: BLI (Octet Red), CRM197 in two-fold dilutions of 50 to 3.13 nM
T2 construct: mature; Purified to more than 95% purity from the fermentation supernatant

B1: 단일클론항체 3F9 (인간 IgG로 전환) (antibody, V domains shown)
VH: EVQLVESGGGLVQPGGSLRLSCAASGFTFSDYAMSWVRQAPGKGLEWVSAISSSSGNKYYADSVKGRFTISRDNSKNTLYLQMNSLRAEDTAVYYCAKLGVRETLSWYFDLWGQGTLVTVSS
VL: DIQMTQSPSSLSASVGDRVTITCRASQSISNYLNWYQQKPGKAPKLLIYAASRLQSGVPSRFSGSGSGTDFTLTISSLQPEDFATYYCQQSYSFPWTFGQGTKVEIK
notes: Human IgG made from a Fab of a human synthetic Fab library; kappa light chain is only implied by the anti-human kappa ELISA
binding result (CRM 197 의 A 단편(21kDa)): no binding | Kd [1]: 4.45 nM
